Source: publication PMC5404317
Where a chain is given by its changes, count along the chain named. Numbers in names are those of the source.

B1: PINK1-V5 WT (V5-6xHis-tagged PINK1 wild type), Q9BXM7 L347P (protein)
chain: AARLQRQFVVRAWGCAGPCGRAVFLAFGLGLGLIEEKQAESRRAVSACQEIQAIFTQKSKPGPDPLDTRRLQGFRLEEYLIGQSIGKGCSAAVYEATMPTLPQNLEVTKSTGLLPGRGPGTSAPGEGQERAPGAPAFPLAIKMMWNISAGSSSEAILNTMSQELVPASRVALAGEYGAVTYRKSKRGPKQLAPHPNIIRVLRAFTSSVPLLPGALVDYPDVLPSRLHPEGLGHGRTLFLVMKNYPCTLRQYLCVNTPSPRLAAMMLLQLPEGVDHLVQQGIAHRDLKSDNILVELDPDGCPWLVIADFGCCLADESIGLQLPFSSWYVDRGGNGCLMAPEVSTARPGPRAVIDYSKADAWAVGAIAYEIFGLVNPFYGQGKAHLESRSYQEAQLPALPESVPPDVRQLVRALLQREASKRPSARVAANVLHLSLWGEHILALKNLKLDKMVGWLLQQSAATLLANRLTEKCCVETKMKMLFLANLECETLCQAALLLCSWRAAL
B2: PINK1-V5 WT (V5-6xHis-tagged PINK1 wild type), Q9BXM7 I368N (protein)
chain: B1 chain with P270L, I291N

Target: HSP90, P07900
Test: co-immunoprecipitation (V5 agarose) with western blot quantification
Settings: chain shown with the change, HeLa cells, read off a plot
[1] = 10 μM CCCP for 2 h, parent: est. 0.82
[2] = untreated (no CCCP), parent: est. 1.0

Binder	response (HSP90/V5 ratio) [1]	response (HSP90/V5 ratio) [2]
B1	0.42	0.54
B2	0.62	0.6
